US20240190962A1
Values belong to the substance of their own block, whether it stands above or below them.

Columns and labels:
Assay in all cases: cell-based or functional assay
[1] = target: T1, IFN-γ receptor (IFNGR1, IFNGR2) (UniProt P15260)
T1 sequence (looked up) 1: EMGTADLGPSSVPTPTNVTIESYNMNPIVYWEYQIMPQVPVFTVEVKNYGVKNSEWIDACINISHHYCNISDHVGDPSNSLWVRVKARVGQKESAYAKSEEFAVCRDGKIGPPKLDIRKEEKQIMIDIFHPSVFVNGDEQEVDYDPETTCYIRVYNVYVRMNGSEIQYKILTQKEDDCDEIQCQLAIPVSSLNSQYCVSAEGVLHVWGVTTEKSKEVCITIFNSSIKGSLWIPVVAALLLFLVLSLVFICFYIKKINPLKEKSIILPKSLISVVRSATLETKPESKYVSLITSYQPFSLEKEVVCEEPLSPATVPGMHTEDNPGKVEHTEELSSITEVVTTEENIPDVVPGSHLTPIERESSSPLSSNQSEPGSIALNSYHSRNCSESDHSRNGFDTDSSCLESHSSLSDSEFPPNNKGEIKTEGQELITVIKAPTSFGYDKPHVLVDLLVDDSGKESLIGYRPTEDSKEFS
T1 sequence (looked up) 2: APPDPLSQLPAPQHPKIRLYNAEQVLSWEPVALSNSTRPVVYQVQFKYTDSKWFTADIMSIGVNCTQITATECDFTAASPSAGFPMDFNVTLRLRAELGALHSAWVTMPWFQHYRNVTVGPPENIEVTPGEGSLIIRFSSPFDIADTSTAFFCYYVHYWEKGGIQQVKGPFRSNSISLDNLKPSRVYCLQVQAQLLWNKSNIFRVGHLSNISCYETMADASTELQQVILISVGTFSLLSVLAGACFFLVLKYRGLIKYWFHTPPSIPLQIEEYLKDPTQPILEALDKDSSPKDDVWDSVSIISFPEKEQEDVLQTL

[2] = target: human IL-10 receptor (hIL-10Rα, hIL-10Rβ) (human) (UniProt Q13651)
[3] = target: human IL-12 receptor complex (IL-12Rβ1, IL-12Rβ2) (human) (UniProt P42701)
[4] = target: IL-23 receptor complex (IL-12Rβ1, IL-23R) (UniProt P42701)
Chain of IL-23 receptor complex (IL-12Rβ1, IL-23R) (Q5VWK5 24-629 limits assumed, chain 2 of 2, other chains not shown): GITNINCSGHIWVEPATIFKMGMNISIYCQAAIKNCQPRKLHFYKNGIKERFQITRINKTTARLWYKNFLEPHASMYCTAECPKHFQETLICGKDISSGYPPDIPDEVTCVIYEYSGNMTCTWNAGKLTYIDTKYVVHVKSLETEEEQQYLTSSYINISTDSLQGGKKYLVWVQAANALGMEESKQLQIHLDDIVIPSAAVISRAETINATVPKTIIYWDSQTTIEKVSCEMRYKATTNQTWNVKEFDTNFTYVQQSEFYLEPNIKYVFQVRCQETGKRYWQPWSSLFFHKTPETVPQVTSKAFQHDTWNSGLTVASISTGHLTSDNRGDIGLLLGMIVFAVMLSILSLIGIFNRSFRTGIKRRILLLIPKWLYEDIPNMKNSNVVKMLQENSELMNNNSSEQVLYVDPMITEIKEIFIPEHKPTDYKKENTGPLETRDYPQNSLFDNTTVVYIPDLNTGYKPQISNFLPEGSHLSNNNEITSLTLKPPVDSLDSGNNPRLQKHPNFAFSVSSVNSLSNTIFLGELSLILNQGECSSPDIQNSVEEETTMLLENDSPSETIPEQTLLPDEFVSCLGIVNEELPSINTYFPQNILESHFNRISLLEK

Chain of human IL-12 receptor complex (IL-12Rβ1, IL-12Rβ2) (human) (Q99665 24-862, chain 2 of 2, other chains not shown): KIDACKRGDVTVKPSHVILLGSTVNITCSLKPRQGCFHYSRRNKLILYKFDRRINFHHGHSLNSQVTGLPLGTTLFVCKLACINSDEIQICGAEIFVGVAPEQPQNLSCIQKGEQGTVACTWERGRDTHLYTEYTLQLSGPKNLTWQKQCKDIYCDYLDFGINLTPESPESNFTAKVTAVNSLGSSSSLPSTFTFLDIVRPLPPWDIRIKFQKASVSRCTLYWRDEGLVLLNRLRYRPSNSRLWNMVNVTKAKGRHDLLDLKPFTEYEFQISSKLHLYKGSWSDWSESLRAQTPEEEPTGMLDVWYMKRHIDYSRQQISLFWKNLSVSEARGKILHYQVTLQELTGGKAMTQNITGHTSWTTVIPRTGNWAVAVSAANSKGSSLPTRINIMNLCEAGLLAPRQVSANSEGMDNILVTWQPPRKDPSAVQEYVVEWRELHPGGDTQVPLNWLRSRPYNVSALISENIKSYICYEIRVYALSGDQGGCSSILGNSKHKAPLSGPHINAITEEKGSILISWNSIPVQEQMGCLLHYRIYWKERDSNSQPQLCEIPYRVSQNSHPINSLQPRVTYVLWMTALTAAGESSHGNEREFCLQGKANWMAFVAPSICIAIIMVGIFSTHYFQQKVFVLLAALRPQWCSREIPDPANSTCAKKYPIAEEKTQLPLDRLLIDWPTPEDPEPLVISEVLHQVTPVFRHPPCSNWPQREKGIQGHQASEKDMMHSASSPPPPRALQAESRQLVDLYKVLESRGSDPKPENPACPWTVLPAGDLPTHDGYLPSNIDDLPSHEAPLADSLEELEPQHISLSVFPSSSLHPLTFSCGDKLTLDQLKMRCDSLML
Chain of recombinant human IL-23 (free state) (P29460 23-328 limits assumed): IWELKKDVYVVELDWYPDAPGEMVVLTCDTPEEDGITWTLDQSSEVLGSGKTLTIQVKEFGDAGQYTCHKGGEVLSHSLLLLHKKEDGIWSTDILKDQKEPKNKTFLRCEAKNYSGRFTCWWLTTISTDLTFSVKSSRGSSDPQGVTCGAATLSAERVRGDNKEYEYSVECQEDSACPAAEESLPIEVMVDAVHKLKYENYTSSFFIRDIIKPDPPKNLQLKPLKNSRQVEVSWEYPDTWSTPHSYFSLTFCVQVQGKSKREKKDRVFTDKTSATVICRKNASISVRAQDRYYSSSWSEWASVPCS
Chain of recombinant human IL-23 (free state) (Q9NPF7 20-189 limits assumed): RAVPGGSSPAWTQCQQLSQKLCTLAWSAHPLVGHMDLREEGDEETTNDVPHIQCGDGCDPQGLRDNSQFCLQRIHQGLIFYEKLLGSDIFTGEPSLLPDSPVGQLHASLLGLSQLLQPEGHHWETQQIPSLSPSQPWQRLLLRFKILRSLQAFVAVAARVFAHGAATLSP
Chain of recombinant human IL-12 (free state) (P29460 23-328 limits assumed): as the sequence (P29460 23-328 limits assumed) above
Chain of recombinant human IL-12 (free state) (P29459 23-219 limits assumed): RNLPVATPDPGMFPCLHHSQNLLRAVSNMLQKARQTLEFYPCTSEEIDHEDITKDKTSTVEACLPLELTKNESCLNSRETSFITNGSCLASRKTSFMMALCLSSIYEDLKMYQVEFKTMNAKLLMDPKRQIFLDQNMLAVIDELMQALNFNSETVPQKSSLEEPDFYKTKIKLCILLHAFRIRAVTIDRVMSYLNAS
Chain of recombinant human IFN-γ (free state) (P01579 24-166 limits assumed): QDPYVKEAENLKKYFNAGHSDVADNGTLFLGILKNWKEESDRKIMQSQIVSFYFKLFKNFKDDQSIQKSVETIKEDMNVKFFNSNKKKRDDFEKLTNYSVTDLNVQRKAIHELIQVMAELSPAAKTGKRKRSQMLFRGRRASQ
Chain of human IL-10 receptor (hIL-10Rα, hIL-10Rβ) (human) (Q13651 22-578, chain 1 of 2): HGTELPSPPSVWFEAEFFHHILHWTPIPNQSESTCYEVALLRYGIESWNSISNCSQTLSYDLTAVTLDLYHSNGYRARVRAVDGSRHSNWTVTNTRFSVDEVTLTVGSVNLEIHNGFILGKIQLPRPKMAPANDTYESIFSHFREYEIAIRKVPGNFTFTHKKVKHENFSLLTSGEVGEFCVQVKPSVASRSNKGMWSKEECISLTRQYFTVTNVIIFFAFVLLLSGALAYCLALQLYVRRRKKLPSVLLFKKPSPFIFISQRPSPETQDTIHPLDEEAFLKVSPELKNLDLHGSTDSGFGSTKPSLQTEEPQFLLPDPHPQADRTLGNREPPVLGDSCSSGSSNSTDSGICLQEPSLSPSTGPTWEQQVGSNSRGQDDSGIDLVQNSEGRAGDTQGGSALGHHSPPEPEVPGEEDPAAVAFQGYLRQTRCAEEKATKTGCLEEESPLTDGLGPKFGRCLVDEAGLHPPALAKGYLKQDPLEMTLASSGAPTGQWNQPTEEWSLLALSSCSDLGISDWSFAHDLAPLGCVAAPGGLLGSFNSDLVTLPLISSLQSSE
Chain of human IL-10 receptor (hIL-10Rα, hIL-10Rβ) (human) (Q08334 20-325, chain 2 of 2, further chain): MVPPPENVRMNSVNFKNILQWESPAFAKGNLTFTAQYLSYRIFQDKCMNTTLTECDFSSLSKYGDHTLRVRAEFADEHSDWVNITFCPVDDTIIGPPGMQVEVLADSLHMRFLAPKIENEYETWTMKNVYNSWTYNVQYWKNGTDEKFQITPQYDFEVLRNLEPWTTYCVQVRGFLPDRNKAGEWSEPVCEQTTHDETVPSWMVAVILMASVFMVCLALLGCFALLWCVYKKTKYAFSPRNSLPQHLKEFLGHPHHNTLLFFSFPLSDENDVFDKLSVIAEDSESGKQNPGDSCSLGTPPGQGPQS

IFN-γ biological activity, HEK-IFN-γ cells [1]: 100% | IFN-γ biological activity, HEK-PD-1-IFN-γ cells [1]: 100% | PD-L1 expression (anti-PD-L1 APC, FACS), HEK-CD4-IFN-γ cells [1]: 67 MFI | PD-L1 expression (anti-PD-L1 APC, FACS), HEK-IFN-γ cells [1]: 75 MFI
Substance: recombinant human IFN-γ (free state) (from UniProt P01579 24-166) (ligand)

IL-10 biological activity, HEK-IL-10 cells [2]: 100% | IL-10 biological activity, HEK-PD-1-IL-10 cells [2]: 100%
Substance: recombinant human IL-10 (free state) (from UniProt P22301 19-178) (ligand)

IL-12 biological activity (IFN-γ release), CD4+ T cells [3]: 100% | IL-12 biological activity (IFN-γ release), CD8+ T cells [3]: 100% | IL-12 biological activity, HEK-IL-12 [3]: 100% | IL-12 biological activity, HEK-IL-12-PD-1 [3]: 100% | IL-12 biological activity, HEK-IL-12-PD-1 (high) [3]: 100% | IL-12 biological activity, HEK-IL-12-PD-1 (low) [3]: 100% | IL-12 biological activity, HEK-IL-12 cells [3]: 100% | IL-12 biological activity, HEK-PD-1-IL-12 [3]: 100% | IL-12 biological activity, HEK-PD-1-IL-12 cells [3]: 100% | PBMC (IFN-γ ng/ml) [3]: 2300 ng/mL
Substance: recombinant human IL-12 (free state) (from UniProt P29460 23-328; P29459 23-219) (ligand)

IL-23 biological activity (IFN-γ release), CD4+ T cells [4]: 100% | IL-23 biological activity (IFN-γ release), CD8+ T cells [4]: 100% | IL-23 biological activity, HEK-IL-23 cells [4]: 100% | IL-23 biological activity, HEK-PD-1-IL-23 cells [4]: 100%
Substance: recombinant human IL-23 (free state) (from UniProt P29460 23-328; Q9NPF7 20-189) (ligand)
